In the supplement of paper PMC9112550, “Optimization of the antimicrobial peptide Bac7 by deep mutational scanning” (BMC Biology, 2022):

System: Escherichia coli TOP10
Test: shrunken log2 fold change of peptide-encoding DNA abundance (4.5 h post-induction vs induction); higher = less antimicrobial activity (less host growth inhibition)
Details: time post-induction: 4.5 h; library: site-saturation at positions 5, 18, 19, 20
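Further: peptides expressed intracellularly from a pBAD plasmid library in pooled LB shake-flask culture, induced with 0.3% L-arabinose, DNA abundance read by NGS, three biological replicates, DESeq2 with apeglm shrinkage.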

Row | Sequence | shrunken log2 fold change
1 | RRIRQRPPRLPRPRPRPMPKPRP | 0.128
2 | RRIRDRPPRLPRPRPRPAPSPRP | 0.367
3 | RRIRGRPPRLPRPRPRPQIQPRP | 0.0796
4 | RRIRNRPPRLPRPRPRPWGWPRP | 0.242
5 | RRIRGRPPRLPRPRPRPYPSPRP | -0.111
6 | RRIRMRPPRLPRPRPRPNFGPRP | 0.0832
7 | RRIRPRPPRLPRPRPRPDCIPRP | -0.391
8 | RRIRTRPPRLPRPRPRPHYAPRP | -0.11
9 | RRIRQRPPRLPRPRPRPERCPRP | 0.00749
10 | RRIRTRPPRLPRPRPRPVTLPRP | -0.37
11 | RRIRLRPPRLPRPRPRPCGIPRP | 0.142
12 | RRIRKRPPRLPRPRPRPSWMPRP | 0.93
13 | RRIRFRPPRLPRPRPRPHLFPRP | -0.238
14 | RRIRWRPPRLPRPRPRPVKMPRP | 0.125
15 | RRIRKRPPRLPRPRPRPRKDPRP | 0.222
16 | RRIRYRPPRLPRPRPRPDREPRP | -0.15
17 | RRIRPRPPRLPRPRPRPPLLPRP | 0.081
18 | RRIRMRPPRLPRPRPRPYTTPRP | -0.335
19 | RRIRCRPPRLPRPRPRPGCIPRP | -0.385
20 | RRIRARPPRLPRPRPRPDHIPRP | -0.126
21 | RRIRKRPPRLPRPRPRPTCEPRP | 0.793
22 | RRIRPRPPRLPRPRPRPNYHPRP | -0.607
23 | RRIRSRPPRLPRPRPRPHHEPRP | -0.0237

Row | Sequence | shrunken log2 fold change
24 | RRIRKRPPRLPRPRPRPRMDPRP | 0.236
25 | RRIRTRPPRLPRPRPRPNMCPRP | 0.00985
26 | RRIRWRPPRLPRPRPRPWCNPRP | -0.0973
27 | RRIRPRPPRLPRPRPRPTLTPRP | 1.22
28 | RRIRNRPPRLPRPRPRPGDTPRP | -0.0217
29 | RRIRGRPPRLPRPRPRPFRMPRP | 0.00538
30 | RRIRCRPPRLPRPRPRPACCPRP | 0.306
31 | RRIRRRPPRLPRPRPRPNFIPRP | -0.481
32 | RRIRSRPPRLPRPRPRPVECPRP | -0.0425
33 | RRIRKRPPRLPRPRPRPLFWPRP | 0.593
34 | RRIRARPPRLPRPRPRPKWKPRP | -0.291
35 | RRIRKRPPRLPRPRPRPPTMPRP | 0.412
36 | RRIRARPPRLPRPRPRPKILPRP | -0.168
37 | RRIRKRPPRLPRPRPRPGTEPRP | 0.542
38 | RRIRFRPPRLPRPRPRPYPQPRP | -0.356
39 | RRIRDRPPRLPRPRPRPKHGPRP | 0.0517
40 | RRIRNRPPRLPRPRPRPATMPRP | -0.1
41 | RRIRHRPPRLPRPRPRPMNHPRP | -0.738
42 | RRIRYRPPRLPRPRPRPTPFPRP | -0.27
43 | RRIRHRPPRLPRPRPRPGGRPRP | 0.0167
44 | RRIRQRPPRLPRPRPRPCICPRP | -0.542
45 | RRIRARPPRLPRPRPRPEMYPRP | 0.151
46 | RRIRPRPPRLPRPRPRPIFPPRP | 0.0704

Row | Sequence | shrunken log2 fold change
47 | RRIRTRPPRLPRPRPRPYELPRP | -0.854
48 | RRIRTRPPRLPRPRPRPDMQPRP | 1.96
49 | RRIRDRPPRLPRPRPRPLYIPRP | -0.266
50 | RRIRIRPPRLPRPRPRPLPRPRP | 0.2
51 | RRIRHRPPRLPRPRPRPQSTPRP | -0.395
52 | RRIRWRPPRLPRPRPRPLKCPRP | 0.0309
53 | RRIRKRPPRLPRPRPRPYFLPRP | -0.278
54 | RRIRDRPPRLPRPRPRPENVPRP | 0.218
55 | RRIRGRPPRLPRPRPRPVTMPRP | 0.396
56 | RRIRWRPPRLPRPRPRPTNMPRP | -0.154
57 | RRIRSRPPRLPRPRPRPAMAPRP | 1.64
58 | RRIRCRPPRLPRPRPRPTCYPRP | -0.154
59 | RRIRSRPPRLPRPRPRPVNNPRP | -0.363
60 | RRIRDRPPRLPRPRPRPFTRPRP | -0.242
61 | RRIRVRPPRLPRPRPRPTTTPRP | 0.1
62 | RRIRYRPPRLPRPRPRPKKEPRP | -0.00181
63 | RRIRERPPRLPRPRPRPPCHPRP | -0.251
64 | RRIRWRPPRLPRPRPRPAQDPRP | 0.415
65 | RRIRWRPPRLPRPRPRPRYWPRP | 0.185
66 | RRIRWRPPRLPRPRPRPDMTPRP | 0.216
67 | RRIRPRPPRLPRPRPRPMCAPRP | 0.159
68 | RRIRGRPPRLPRPRPRPEVMPRP | 1.41
69 | RRIRIRPPRLPRPRPRPQCKPRP | -0.532

Row | Sequence | shrunken log2 fold change
70 | RRIRERPPRLPRPRPRPKMQPRP | -0.0537
71 | RRIRSRPPRLPRPRPRPTKNPRP | 0.168
72 | RRIRGRPPRLPRPRPRPDQFPRP | 0.704
73 | RRIRFRPPRLPRPRPRPPWYPRP | -0.3
74 | RRIRMRPPRLPRPRPRPWHHPRP | -0.0514
75 | RRIRKRPPRLPRPRPRPLYIPRP | -0.329
76 | RRIRMRPPRLPRPRPRPLCWPRP | 1.15
77 | RRIRARPPRLPRPRPRPLYFPRP | -0.282
78 | RRIRHRPPRLPRPRPRPCFVPRP | 0.0216
79 | RRIRLRPPRLPRPRPRPVWQPRP | -0.096
80 | RRIRIRPPRLPRPRPRPALRPRP | 0.00782
81 | RRIRNRPPRLPRPRPRPLGKPRP | -0.299
82 | RRIRTRPPRLPRPRPRPMTHPRP | -0.633
83 | RRIRWRPPRLPRPRPRPIKIPRP | -0.0625
84 | RRIRYRPPRLPRPRPRPVGSPRP | -0.277
85 | RRIRFRPPRLPRPRPRPGMKPRP | -0.0551
86 | RRIRGRPPRLPRPRPRPGYLPRP | 0.0499
87 | RRIRHRPPRLPRPRPRPWATPRP | -0.0619
88 | RRIRQRPPRLPRPRPRPSQDPRP | -0.0378
89 | RRIRLRPPRLPRPRPRPWNRPRP | -0.0226
90 | RRIRVRPPRLPRPRPRPYYVPRP | -1.97
91 | RRIRWRPPRLPRPRPRPQKHPRP | -0.15
